# Results from patent publication US20260294251A1, “Method for Medical Imaging” (Integro Theranositcs, LLC, priority 2023, published 2026).
# pIC50: −log10 of the molar value. Like-named read-outs stand apart in the source and are kept apart here. Positions of bridges follow the written chain, without caps; N, C: chain ends. Non-standard residues stand in square brackets, D forms with d. Residues, ends and D or L forms follow the SMILES beside them. *: point of attachment. X1 = CC1(C)C(/C=C/C=C/C=C/C=C2/N(CCC(=O)*)c3ccc4ccccc4c3C2(C)C)=[N+](CCC(=O)[O-])c2ccc3ccccc3c21
# Columns and labels:
# tumors [1] = assay: Proof of concept imaging and biodistribution in mice after single IV delivery
# [2] = test system: Wolff-Bloom-Litton Chinese hamster ovary (CHO-WBL) cells; assay: Chromosomal aberration test in CHO-WBL cells; format: cell-based; conditions: with and without an S9 activation system
# Description: (§1) LS301 was negative for inducing structural/numerical chromosomal aberrations in Wolff-Bloom-Litton Chinese hamster ovary (CHO-WBL) cells with and without an S9 activation system. In a previous study, the potential for LS301 to cause genotoxicity was evaluated in a GLP bacterial mutagenicity (Ames) test in 4 strains of Salmonella typhimurium (TA100, TA1535, TA98, TA1537) and Escherichia coli (WP2uvrA) at doses up to 1000 μg/plate. The results were negative for LS301 mutagenicity.
# [3] = Pharmacokinetics in the rat after single IV delivery
# Description: (§4) Appropriate bioanalytical methods were developed and validated to measure LS301 concentrations in rat plasma (LC-MS/MS) and various dosing formulations (HPLC-UV, UPLC) per good laboratory practice (GLP) regulations.
# [4] = test system: respiratory system functional parameters; assay: Respiratory safety pharmacology after single IV administration; format: in vivo, Sprague-Dawley rats; conditions: single IV up to 20 mg/kg, up to 24 hours
# Text: (§2) Results from safety pharmacology studies further support the potential safety of L301 and LS301-IT.
# [5] = target: human Ether-à-go-go related gene (hERG) (Homo sapiens, UniProt Q12809); assay: human Ether-à-go-go related gene (hERG) assay; format: cell-based
# Text: as §2
# [6] = rat, in vivo, iv
# Description: as §4
# cardiovascular function = assay: Cardiovascular safety pharmacology after single IV administration; format: in vivo, rat; conditions: rats, single IV up to 20 mg/kg, up to 24 hours
# Text: as §2
# [7] = Toxicokinetics at the NOAEL in the rat toxicity study; format: in vivo; conditions: plasma, iv, 20 mg/kg, Day 1, at NOAEL 20 mg/kg; for AUC(0-t) at 48 h: read-out: AUC0-48h; for C0: read-out: Co
# Description: In this study, the NOAEL was considered 20 mg/kg. The corresponding AUC0-48h and Co of LS301 at the established NOAEL on Day 1 were 14200 h*ng/ml and 69900 ng/mL for males and 14900 h*ng/mL and 98800 ng/mL for females, respectively. Therefore, the NOAEL of 20 mg/kg is equivalent to a 3.226 mg/kg human dose.
# rats = assay: Single IV dose toxicity study in rats; format: in vivo, rat
# Text: (§3) Therefore, the changes were considered non-adverse.
# [8] = Single IV dose toxicity study in rats; format: in vivo, rat; conditions: rat, in vivo, iv; for selectivity ratio: starting dose 0.025 mg/kg, read-out: safety margin
# Text: as §3
# [9] = test system: Salmonella typhimurium (TA100, TA1535, TA98, TA1537) and Escherichia coli (WP2uvrA); assay: GLP bacterial mutagenicity (Ames) test; format: cell-based; conditions: doses up to 1000 μg/plate; previous study
# Description: as §1
# male rats = assay: In-vivo safety pharmacology (functional observation battery) in male rats; design: species or system rat
# Text: as §2
# [10] = test system: mouse breast cancer model; conditions: in vivo, iv
# tumors [11] = conditions: mouse, in vivo, iv
# Chain of human Ether-à-go-go related gene (hERG) (Q12809 whole entry): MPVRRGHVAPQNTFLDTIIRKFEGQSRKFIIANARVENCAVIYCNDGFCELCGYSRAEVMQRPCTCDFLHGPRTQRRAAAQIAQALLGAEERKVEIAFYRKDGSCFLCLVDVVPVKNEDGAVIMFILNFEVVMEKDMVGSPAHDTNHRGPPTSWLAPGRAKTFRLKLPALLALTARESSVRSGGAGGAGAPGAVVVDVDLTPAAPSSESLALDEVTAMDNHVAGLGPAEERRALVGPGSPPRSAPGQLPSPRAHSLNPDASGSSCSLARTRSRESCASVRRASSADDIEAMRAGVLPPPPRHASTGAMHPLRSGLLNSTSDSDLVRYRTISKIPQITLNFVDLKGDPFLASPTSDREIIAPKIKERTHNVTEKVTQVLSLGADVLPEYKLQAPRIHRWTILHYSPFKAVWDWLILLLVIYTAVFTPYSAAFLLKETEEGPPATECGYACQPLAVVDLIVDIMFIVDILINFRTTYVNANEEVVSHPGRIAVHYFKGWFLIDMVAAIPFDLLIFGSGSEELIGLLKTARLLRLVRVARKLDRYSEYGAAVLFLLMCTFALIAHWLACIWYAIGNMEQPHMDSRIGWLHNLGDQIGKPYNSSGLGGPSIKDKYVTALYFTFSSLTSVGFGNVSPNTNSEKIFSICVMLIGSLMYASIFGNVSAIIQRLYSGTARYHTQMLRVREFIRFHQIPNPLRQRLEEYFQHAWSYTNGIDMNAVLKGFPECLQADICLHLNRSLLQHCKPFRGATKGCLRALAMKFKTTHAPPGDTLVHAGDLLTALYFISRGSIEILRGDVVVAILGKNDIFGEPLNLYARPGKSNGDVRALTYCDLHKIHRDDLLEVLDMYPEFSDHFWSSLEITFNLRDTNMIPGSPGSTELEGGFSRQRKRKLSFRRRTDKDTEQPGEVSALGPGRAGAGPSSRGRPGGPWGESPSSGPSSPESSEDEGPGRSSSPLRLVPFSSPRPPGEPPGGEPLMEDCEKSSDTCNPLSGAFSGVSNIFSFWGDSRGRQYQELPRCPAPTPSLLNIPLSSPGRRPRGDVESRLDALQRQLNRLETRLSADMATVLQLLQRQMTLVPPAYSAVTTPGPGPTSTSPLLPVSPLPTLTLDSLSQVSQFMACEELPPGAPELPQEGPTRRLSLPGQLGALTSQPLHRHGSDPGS
compound,measurement,setting,value
"CC1(C)C(/C=C/C=C/C=C/C=C2/N(CCC(=O)N[C@@H]3CSSC[C@@H](C(=O)N[C@@H](CCCCN)C(=O)O)NC(=O)[C@@H]4CCCN4C(=O)[C@H](CO)NC(=O)[C@H](CC(=O)O)NC(=O)[C@H](CCCNC(=N)N)NC(=O)CNC3=O)c3ccc4ccccc4c3C2(C)C)=[N+](CCC(=O)[O-])c2ccc3ccccc3c21 [LS301, cypate-cyclo(Cys-Gly-Arg-Asp-Ser-Pro-Cys)-Lys-OH] (X1-[dC]GRDSPCK-OH; disulfide 1-7)",accumulation in other tissues,tumors [1],"accumulated in other tissues, especially the excretory organs of the liver and kidneys"
same,binding and accumulation in tumors,tumors [1],could bind and accumulate in tumors
same,tumor-to-background ratio,tumors [1]; four hours post-injection,clear tumor-to-background ratio
same,structural/numerical chromosomal aberrations,[2],negative
same,half-life,[3]; rat,fewer than five hours
same,systemic exposure versus dose,[3]; rat,increased proportionally with dose
same,difference in systemic exposure between male and female,[3]; rats,No differences were seen
same,"respiratory system functional parameters (tidal volume, respiratory rate, derived minute volume)",[4],did not affect respiratory system functional parameters
same,pIC50,[5],< 5.00
same,tissue distribution,[6],widely distributed to tissues
same,volume of distribution,[6],greater than the total volume of body water in humans
same,cardiovascular function,cardiovascular function,did not affect cardiovascular function
same,AUC(0-t) at 48 h,[7]; females,14900 ng·h/mL
same,C0,[7]; females,98.8 µg/mL
same,AUC(0-t) at 48 h,[7]; males,14200 ng·h/mL
same,C0,[7]; males,69.9 µg/mL
same,"mortalities or changes in body weight, food consumption, ophthalmology, hematology, coagulation, and urinalysis","rats; rats, up to 20 mg/kg LS301",no mortalities or test article-related changes
same,tolerability,"rats; rats, up to 20 mg/kg LS301",tolerated LS301 and LS301-IT well
same,resolution of discoloration,"rats; ≥10 mg/kg, rat toxicity study",resolved on Day 15
same,NOAEL,"[8]; correction factor of 0.88, read-out: corrected NOAEL",17.6 mg/kg
same,NOAEL,"[8]; single IV, read-out: NOAEL",20 mg/kg
same,selectivity ratio,[8]; NOAEL 20 mg/kg,129
same,selectivity ratio,[8]; corrected NOAEL 17.6 mg/kg,114
same,mutagenicity (Ames),[9],negative
same,mortality,"male rats; male rats, up to 20 mg/kg",No mortalities
same,functional observation battery (FOB) parameters,"male rats; male rats, up to 20 mg/kg, motor activity, behavior, coordination, reflexes, body temperature",no effects
same,discoloration (green),"male rats; male rats, ≥10 mg/kg",transient LS301-related discoloration (green)
same,"effects on central nervous, cardiovascular, and respiratory functions","male rats; rats, doses up to 20 mg/kg",no significant effects
same,tolerability,"male rats; rats, doses up to 20 mg/kg",Rats tolerated LS301 well
same,tissue distribution,[10],"distributes and accumulates in tumor and non-tumor tissues, especially the liver and kidneys"
same,tumor uptake (biodistribution),tumors [11],high uptake in tumors
